System: HaloTag-JF635-DDB2 (human)
Experiment: single-molecule binding (optical tweezers, confocal)
Conditions: with eGFP-DDB1; from kon and koff; corrected lifetime 39.0 s; UV-C photoproducts (CPD and 6-4PP), random positions; Nuclear extracts in LUMICKS C-trap flow cell, lambda DNA tethered at about 10 pN; buffer, salt, pH and temperature not given in the material

UV-damaged lambda DNA (40 J/m2)
Kd: 0.4 nM
